Test results taken from EP4613767A1 (Shanghai Qilu Pharmaceutical Research and Development …, dated 2025).

B1: bispecific antigen-binding molecule G100 (bispecific antibody)
chain 1: not shown
chain 2: EVKLVESGGGLVQPGGSLKLSCAASGFTFNTYAMNWVRQAPGKGLEWVARIRSKYNNYATYYADSVKDRFTISRDDAKNTLYLQMNNLRTEDTAVYYCVRHGNFGNSYVSWFAYWGQGTLVTVSSGGGGSGGGGSGGGGSAQAVVTQEPSLTVSPGGTVTLTCRSSTGAVTTSNYANWVQQKPGQAPRGLIGGTNKRAPGTPARFSGSLLGGKAALTLSGAQPEDEAEYYCALWYSNLWVFGGGTKLTVLEPKSSDKTHTCPPCPAPEAAGGPSVFLFPPKPKDTLMISRTPEVTCVVVDVSHEDPEVKFNWYVDGVEVHNAKTKPREEQYNSTYRVVSVLTVLHQDWLNGKEYKCKVSNKALPAPIEKTISKAKGQPREPQVCTLPPSRDELTKNQVSLSCAVKGFYPSDIAVEWESNGQPENNYKTTPPVLDSDGSFFLVSKLTVDKSRWQQGNVFSCSVMHEALHNRYTQKSLSLSPGK
notes: Heterodimer of two chains (Format 1): one anti-GPC3 VHH on Knob-Fc, one anti-CD3 scFv on Hole-Fc; also called anti-CD3-GPC3 bispecific antibody; Format 1
B2: bispecific antigen-binding molecule G156 (bispecific antibody)
chain 1: not shown
chain 2: B1 chain 2
notes: Heterodimer of two chains (Format 2): two anti-GPC3 VHH on the Knob-Fc chain, one anti-CD3 scFv on Hole-Fc; also called anti-CD3-GPC3 bispecific antibody; Format 2

Columns and labels:
[1] = biological target: T1, monkey GPC3 protein (Acro, Cat. No.: GP3-C522a) (monkey); assay: SPR Biacore 8K, anti-human Fc on CM5 chip, GPC3 protein as analyte, 1:1 fit
T1 construct: Bought recombinant protein

[2] = biological target: T2, human CD3 naturally expressed on Jurkat cells (human, UniProt P07766 23-207; P04234 22-171; P09693 23-182); assay: FACS on Jurkat cells naturally expressing human CD3
T2 construct: whole, on cells; also called hCD3
T2 sequence (P07766 23-207, chain 1 of 3): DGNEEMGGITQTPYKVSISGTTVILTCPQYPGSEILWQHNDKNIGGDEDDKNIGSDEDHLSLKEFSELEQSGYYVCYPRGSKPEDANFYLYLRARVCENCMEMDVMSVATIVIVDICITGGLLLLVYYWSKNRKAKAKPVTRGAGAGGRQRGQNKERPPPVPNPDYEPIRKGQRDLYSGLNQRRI
T2 sequence (P04234 22-171, chain 2 of 3): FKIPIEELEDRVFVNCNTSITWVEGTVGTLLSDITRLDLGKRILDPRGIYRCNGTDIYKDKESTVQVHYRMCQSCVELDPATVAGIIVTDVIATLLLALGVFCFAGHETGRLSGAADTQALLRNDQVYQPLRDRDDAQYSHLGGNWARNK
T2 sequence (P09693 23-182, chain 3 of 3): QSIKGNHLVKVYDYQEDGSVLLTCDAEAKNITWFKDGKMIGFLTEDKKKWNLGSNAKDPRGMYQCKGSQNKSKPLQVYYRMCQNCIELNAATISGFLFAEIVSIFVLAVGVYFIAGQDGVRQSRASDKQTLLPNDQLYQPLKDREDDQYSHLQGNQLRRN

[3] = biological target: T3, human CD3 E&D protein (Acro, Cat. No.: CDD-H52W1) (human, UniProt P07766 23-126; P04234 22-105); assay: SPR Biacore 8K, CD3 E&D immobilised on CM5 chip, antibody as analyte, 1:1 fit
T3 construct: Bought recombinant protein
T3 sequence (P07766 23-126, chain 1 of 2): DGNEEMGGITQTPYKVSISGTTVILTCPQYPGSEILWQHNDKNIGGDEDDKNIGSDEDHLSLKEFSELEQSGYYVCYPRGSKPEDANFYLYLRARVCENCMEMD
T3 sequence (P04234 22-105, chain 2 of 2): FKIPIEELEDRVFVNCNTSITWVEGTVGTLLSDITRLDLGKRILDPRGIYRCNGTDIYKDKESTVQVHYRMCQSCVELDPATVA

[4] = biological target: monkey CD3 E&D protein (Acro, Cat. No.: CDD-C52W4) (monkey, UniProt Q95LI5 22-117; Q95LI8 22-105); assay: as above
Chain of monkey CD3 E&D protein (Acro, Cat. No.: CDD-C52W4) (Q95LI5 22-117, chain 1 of 2): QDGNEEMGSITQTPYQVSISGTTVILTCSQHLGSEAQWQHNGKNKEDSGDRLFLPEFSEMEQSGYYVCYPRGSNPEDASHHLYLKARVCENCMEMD
Chain of monkey CD3 E&D protein (Acro, Cat. No.: CDD-C52W4) (Q95LI8 22-105, chain 2 of 2): as the sequence (P04234 22-105, chain 2 of 2) above, with I5V, N15K, I20V, S32T, D33N, I34N, T64A, S74N, V83L counted along it

Binder	Kd [1] [nM]	koff [1] [s⁻¹]	kon [1] [M⁻¹ s⁻¹]	EC50 [2] [nM]	Kd [3] [nM]	koff [3] [s⁻¹]	kon [3] [M⁻¹ s⁻¹]	Kd [4] [nM]	koff [4] [s⁻¹]	kon [4] [M⁻¹ s⁻¹]
B1	9.15	0.00276	302000	23.9	3.49	0.00286	820000	5.66	0.00427	755000
B2	9.62	0.00275	285000	27.4	1.3	0.00193	1.48e+06	2.79	0.00367	1.32e+06
